The text below walks through data of patent US20240270857A1 (CHIA TAI TIANQING PHARMACEUTICAL GROUP, published 2024).

Positions count from the first letter of the chain named. Where only a bound is given, the exact number is not on record here.

The chains are these.
T1: Human IL-1Rrp2/IL-1R6 protein, His Tag (ACROBiosystems, IL2-H52H6) (human, UniProt Q9HB29 20-335)
T1 construct: Bought protein; the soluble protein is likely only the extracellular part; also called hIL-36R; human IL36R antigen; not shown: His tag
T1 sequence: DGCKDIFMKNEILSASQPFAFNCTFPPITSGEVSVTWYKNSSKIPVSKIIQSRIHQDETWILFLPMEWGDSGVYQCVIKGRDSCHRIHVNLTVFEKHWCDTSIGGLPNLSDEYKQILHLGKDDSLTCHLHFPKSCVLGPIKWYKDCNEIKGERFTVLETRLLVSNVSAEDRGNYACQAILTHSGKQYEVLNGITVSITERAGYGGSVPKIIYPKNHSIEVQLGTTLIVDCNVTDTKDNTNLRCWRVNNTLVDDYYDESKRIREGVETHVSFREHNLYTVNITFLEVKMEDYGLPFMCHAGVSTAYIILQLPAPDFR

T2: cynomolgus IL-36R overexpressed on 293T-CynoIL36R-NFκB cells (cynomolgus monkey)
T2 construct: Entry includes the signal peptide; also called monkey IL-36R
T2 chain: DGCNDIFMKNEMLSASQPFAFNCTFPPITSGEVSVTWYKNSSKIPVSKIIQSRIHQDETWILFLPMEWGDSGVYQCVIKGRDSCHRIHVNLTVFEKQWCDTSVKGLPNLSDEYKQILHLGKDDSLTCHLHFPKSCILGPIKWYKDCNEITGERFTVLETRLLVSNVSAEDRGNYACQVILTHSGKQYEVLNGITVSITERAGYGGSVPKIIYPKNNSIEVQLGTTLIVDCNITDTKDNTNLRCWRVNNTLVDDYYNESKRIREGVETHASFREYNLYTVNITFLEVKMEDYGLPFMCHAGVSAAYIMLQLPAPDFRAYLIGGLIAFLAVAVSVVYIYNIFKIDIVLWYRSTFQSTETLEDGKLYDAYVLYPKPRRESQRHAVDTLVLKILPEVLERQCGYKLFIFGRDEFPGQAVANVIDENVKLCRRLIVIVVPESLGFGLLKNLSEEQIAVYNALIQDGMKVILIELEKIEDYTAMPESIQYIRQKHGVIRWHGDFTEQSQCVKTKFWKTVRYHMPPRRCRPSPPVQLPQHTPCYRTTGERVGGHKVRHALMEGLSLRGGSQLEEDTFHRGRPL

B1: chimeric 72C1 antibody (antibody, human IgG4 S228P, kappa)
heavy: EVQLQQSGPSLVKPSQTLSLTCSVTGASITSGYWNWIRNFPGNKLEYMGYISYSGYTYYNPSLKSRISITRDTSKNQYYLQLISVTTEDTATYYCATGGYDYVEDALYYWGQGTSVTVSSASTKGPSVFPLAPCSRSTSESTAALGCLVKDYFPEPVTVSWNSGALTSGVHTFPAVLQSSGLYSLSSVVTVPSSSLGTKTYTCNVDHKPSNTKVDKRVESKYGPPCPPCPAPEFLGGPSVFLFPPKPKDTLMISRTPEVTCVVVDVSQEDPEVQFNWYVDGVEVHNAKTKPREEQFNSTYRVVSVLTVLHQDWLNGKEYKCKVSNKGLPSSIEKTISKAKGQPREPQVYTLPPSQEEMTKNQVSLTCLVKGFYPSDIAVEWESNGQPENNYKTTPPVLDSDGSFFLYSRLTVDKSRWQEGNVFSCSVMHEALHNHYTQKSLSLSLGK
light: EILLTQSPAIMSATLGEKVTMSCRASSNVRYMYWYQLKSGASPKLWIYLTSNLASGVPARFSGSGSGTSYSLTISSVEAEDAATYFCQQFTTSPYTFGGGTKLEIKRTVAAPSVFIFPPSDEQLKSGTASVVCLLNNFYPREAKVQWKVDNALQSGNSQESVTEQDSKDSTYSLSSTLTLSKADYEKHKVYACEVTHQGLSSPVTKSFNRGEC
notes: Mouse variable regions on human IgG4 / kappa; also called xi72C1
B2: hz72C1-1.2 (antibody, human IgG4 S228P, kappa)
heavy: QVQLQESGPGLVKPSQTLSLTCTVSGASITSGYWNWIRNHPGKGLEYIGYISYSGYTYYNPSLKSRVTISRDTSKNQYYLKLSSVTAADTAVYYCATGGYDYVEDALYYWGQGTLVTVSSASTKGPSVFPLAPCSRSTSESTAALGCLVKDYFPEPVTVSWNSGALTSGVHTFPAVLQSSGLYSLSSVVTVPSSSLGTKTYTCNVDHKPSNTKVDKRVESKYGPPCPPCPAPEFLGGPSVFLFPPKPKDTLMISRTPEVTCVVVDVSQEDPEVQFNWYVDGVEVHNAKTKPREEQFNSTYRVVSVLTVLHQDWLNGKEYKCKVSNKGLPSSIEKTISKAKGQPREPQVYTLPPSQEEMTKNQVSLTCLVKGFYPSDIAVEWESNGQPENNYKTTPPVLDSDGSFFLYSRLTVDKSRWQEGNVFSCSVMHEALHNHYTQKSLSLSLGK
light: DIQMTQSPSSLSASVGDRVTITCRASSNVRYMYWYQQKPGKAPKLWIYLTSNLASGVPSRFSGSGSGTSYTLTISSLQPEDFATYYCQQFTTSPYTFGQGTKLEIKRTVAAPSVFIFPPSDEQLKSGTASVVCLLNNFYPREAKVQWKVDNALQSGNSQESVTEQDSKDSTYSLSSTLTLSKADYEKHKVYACEVTHQGLSSPVTKSFNRGEC
notes: Humanized, human IgG4 / kappa
B3: hz72C1-2.3 (antibody, human IgG4 S228P, kappa)
heavy: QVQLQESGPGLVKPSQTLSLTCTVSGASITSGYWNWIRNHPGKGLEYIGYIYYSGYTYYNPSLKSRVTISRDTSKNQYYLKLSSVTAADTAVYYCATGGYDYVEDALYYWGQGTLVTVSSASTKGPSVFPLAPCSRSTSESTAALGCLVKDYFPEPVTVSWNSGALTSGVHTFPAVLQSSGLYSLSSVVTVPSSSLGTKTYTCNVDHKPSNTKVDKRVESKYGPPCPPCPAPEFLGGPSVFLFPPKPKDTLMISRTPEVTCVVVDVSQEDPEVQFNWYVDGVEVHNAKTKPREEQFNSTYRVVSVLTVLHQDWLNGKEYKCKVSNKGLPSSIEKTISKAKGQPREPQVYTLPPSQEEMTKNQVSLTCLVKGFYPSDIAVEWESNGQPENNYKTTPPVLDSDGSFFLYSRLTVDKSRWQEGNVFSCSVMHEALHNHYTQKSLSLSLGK
light: B2 light with F90Y
notes: Humanized, human IgG4 / kappa
B4: hz72C1-2.1 (antibody, human IgG4 S228P, kappa)
heavy: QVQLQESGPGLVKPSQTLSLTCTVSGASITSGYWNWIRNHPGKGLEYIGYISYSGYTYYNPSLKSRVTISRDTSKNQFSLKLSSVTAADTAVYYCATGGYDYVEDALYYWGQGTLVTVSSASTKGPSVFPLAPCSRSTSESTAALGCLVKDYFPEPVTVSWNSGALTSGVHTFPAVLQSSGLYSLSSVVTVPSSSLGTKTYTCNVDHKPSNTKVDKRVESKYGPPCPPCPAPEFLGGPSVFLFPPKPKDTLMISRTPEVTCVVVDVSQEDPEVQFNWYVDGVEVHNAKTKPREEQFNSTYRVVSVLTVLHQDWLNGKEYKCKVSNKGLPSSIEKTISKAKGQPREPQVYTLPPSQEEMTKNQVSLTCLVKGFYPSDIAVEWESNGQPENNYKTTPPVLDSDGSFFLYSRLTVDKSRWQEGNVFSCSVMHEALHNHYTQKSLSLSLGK
light: B2 light with F90Y
notes: Humanized, human IgG4 / kappa
B5: hz72C1-1.3 (antibody, human IgG4 S228P, kappa)
heavy: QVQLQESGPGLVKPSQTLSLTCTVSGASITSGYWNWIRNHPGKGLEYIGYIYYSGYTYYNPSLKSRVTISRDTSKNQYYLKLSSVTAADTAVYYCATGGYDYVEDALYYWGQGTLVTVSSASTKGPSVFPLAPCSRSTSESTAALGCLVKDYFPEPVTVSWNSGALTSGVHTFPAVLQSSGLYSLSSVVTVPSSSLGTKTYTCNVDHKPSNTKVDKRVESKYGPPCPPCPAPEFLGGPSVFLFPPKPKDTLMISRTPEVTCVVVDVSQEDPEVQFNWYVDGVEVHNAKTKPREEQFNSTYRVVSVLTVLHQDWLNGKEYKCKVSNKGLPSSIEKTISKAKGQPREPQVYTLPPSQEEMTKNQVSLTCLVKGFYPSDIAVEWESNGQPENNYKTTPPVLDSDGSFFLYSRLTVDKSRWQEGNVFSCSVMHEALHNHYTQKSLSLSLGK
light: B2 light
notes: Humanized, human IgG4 / kappa
B6: hz72C1-2.2 (antibody, human IgG4 S228P, kappa)
heavy: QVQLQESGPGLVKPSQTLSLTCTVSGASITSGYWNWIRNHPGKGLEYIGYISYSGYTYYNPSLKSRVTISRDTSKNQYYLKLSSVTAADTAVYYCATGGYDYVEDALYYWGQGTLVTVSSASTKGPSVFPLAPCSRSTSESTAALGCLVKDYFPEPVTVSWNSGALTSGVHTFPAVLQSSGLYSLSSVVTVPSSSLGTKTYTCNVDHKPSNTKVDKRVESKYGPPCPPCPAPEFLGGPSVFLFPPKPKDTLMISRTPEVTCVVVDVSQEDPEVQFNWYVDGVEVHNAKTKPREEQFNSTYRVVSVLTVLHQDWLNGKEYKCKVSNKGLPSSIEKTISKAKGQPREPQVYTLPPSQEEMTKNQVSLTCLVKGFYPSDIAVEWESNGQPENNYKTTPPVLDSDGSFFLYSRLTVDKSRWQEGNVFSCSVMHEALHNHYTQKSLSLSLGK
light: B2 light with F90Y
notes: Humanized, human IgG4 / kappa
B7: hz72C1-1.1 (antibody, human IgG4 S228P, kappa)
heavy: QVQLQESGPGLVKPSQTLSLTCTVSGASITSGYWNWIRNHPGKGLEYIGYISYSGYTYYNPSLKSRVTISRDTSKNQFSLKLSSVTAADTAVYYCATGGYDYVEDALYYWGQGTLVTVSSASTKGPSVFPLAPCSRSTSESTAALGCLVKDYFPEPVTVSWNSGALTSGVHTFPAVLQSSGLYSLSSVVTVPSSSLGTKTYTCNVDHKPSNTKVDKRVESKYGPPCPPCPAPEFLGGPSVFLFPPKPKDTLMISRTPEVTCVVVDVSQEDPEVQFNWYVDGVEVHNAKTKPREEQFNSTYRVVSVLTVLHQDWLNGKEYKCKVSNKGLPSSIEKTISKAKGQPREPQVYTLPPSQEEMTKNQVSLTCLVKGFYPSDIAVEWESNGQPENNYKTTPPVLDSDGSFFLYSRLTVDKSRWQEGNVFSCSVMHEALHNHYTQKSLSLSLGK
light: B2 light
notes: Humanized, human IgG4 / kappa; also called humanized 72C1 antibody 1.1
B8: BI655130 (antibody, human IgG1, kappa, L234A L235A)
heavy: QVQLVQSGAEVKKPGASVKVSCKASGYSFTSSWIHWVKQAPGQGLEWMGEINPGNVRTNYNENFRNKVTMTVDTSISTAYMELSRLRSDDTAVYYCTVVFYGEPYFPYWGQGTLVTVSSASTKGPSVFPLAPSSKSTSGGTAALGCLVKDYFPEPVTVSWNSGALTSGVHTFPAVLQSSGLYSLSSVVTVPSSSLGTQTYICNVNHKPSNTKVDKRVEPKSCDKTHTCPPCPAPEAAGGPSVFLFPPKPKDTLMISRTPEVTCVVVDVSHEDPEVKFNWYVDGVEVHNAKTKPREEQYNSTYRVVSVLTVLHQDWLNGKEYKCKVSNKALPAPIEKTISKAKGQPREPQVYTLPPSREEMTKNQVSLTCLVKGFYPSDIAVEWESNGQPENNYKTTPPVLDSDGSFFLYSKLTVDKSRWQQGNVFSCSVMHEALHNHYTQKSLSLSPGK
light: QIVLTQSPGTLSLSPGERATMTCTASSSVSSSYFHWYQQKPGQAPRLWIYRTSRLASGVPDRFSGSGSGTDFTLTISRLEPEDAATYYCHQFHRSPLTFGAGTKLEIKRTVAAPSVFIFPPSDEQLKSGTASVVCLLNNFYPREAKVQWKVDNALQSGNSQESVTEQDSKDSTYSLSSTLTLSKADYEKHKVYACEVTHQGLSSPVTKSFNRGEC
notes: also called Spesolimab
B9: hz84C4-1.1 (antibody, human IgG4 S228P, kappa, V domains shown)
VH: QVQLVQSGAEVKKPGASVKVSCKASGYFFTSYWMNWVRQAPGQGLEWMGMIHPYDSETRYAQKFQGRVTMTVDKSTSTVYMELSSLRSEDTAVYYCASSTTAFAYWGQGTLVTVSS
VL: DIQMTQSPSSLSASVGDRVTITCRASQDIGNALNWYQQKPGKAPKRLIYATSSLDPGVPSRFSGSRSGTDFTLTISSLQPEDFATYYCLQYASSPYTFGQGTKVEIKR
notes: Humanized, human IgG4 / kappa
B10: hz84C4-2.4 (antibody, human IgG4 S228P, kappa, V domains shown)
VH: B9 VH with F28Y, Y60L, Q65K
VL: B9 VL with Y36L, F71Y
notes: Humanized, human IgG4 / kappa
B11: hz84C4-1.5 (antibody, human IgG4 S228P, kappa, V domains shown)
VH: B9 VH with A24V, R38N, Y60L, Q65K
VL: B9 VL
notes: Humanized, human IgG4 / kappa
B12: hz84C4-1.3 (antibody, human IgG4 S228P, kappa, V domains shown)
VH: B9 VH with H52Y
VL: B9 VL
notes: Humanized, human IgG4 / kappa
B13: hz84C4-2.5 (antibody, human IgG4 S228P, kappa, V domains shown)
VH: B9 VH with A24V, R38N, Y60L, Q65K
VL: B9 VL with Y36L, F71Y
notes: Humanized, human IgG4 / kappa
B14: hz84C4-1.2 (antibody, human IgG4 S228P, kappa, V domains shown)
VH: B9 VH with M50Y
VL: B9 VL
notes: Humanized, human IgG4 / kappa
B15: hz84C4-2.1 (antibody, human IgG4 S228P, kappa, V domains shown)
VH: B9 VH
VL: B9 VL with Y36L, F71Y
notes: Humanized, human IgG4 / kappa
B16: hz84C4-2.3 (antibody, human IgG4 S228P, kappa, V domains shown)
VH: B9 VH with H52Y
VL: B9 VL with Y36L, F71Y
notes: Humanized, human IgG4 / kappa
B17: hz84C4-1.4 (antibody, human IgG4 S228P, kappa, V domains shown)
VH: B9 VH with F28Y, Y60L, Q65K
VL: B9 VL
notes: Humanized, human IgG4 / kappa
B18: hz84C4-2.2 (antibody, human IgG4 S228P, kappa, V domains shown)
VH: B9 VH with M50Y
VL: B9 VL with Y36L, F71Y
notes: Humanized, human IgG4 / kappa

The target of the first test is T1, Human IL-1Rrp2/IL-1R6 protein, His Tag …. The experiment in a line: BLI (ForteBio Octet), antibody on ProA sensor, 1:1 model. The procedure: (§1) The affinity of anti-IL-36R antibodies to CynoIL36R-ECD mFc and human IL-1Rrp2/IL-IR6 protein, His Tag (ACROBiosystems, IL2-H52H6) was measured by a ForteBio molecular interaction instrument. […] And then the biosensor was used to bind CynoIL36R-ECD mFc or human IL-1Rrp2/IL-1R6 protein, His Tag which was diluted by a gradient (the initial concentration was 200 nM, 2-fold gradient dilution), the response signals were detected in real time using a Fortebio molecular interaction instrument (SARTORIUS, octet red 96e), and association and dissociation curves were obtained. After the completion of dissociation in each cycle, the biosensor was regenerated for the next capture; the procedure was repeated until the affinity of the different anti-IL-36R antibodies for IL-36R was determined. The resulting data were analyzed by Fortebio Data Analysis 11.0 software in a 1:1 (Langmuir) binding model to determine kₐ (kₒₙ) and kd (koff) values, and the dissociation constant KD was calculated by KD=kd/kₐ. The detection method essentially followed the manufacturer's recommendations, and more information could be found at www.fortebio.com.
(§2) Affinity, binding and blocking assays for humanized antibodies hz72C1-1.1, hz72C1-1.2, hz72C1-1.3, hz72C1-2.1, hz72C1-2.2 and hz72C1-2.3 as well as hz84C4-1.1, hz84C4-1.2, hz84C4-1.3, hz84C4-1.4, hz84C4-1.5, hz84C4-2.1, hz84C4-2.2, hz84C4-2.3, hz84C4-2.4 and hz84C4-2.5 were performed according to the methods of Example 4, Example 5. Example 6, Example 7 and Example 8.
For the molecule B1, binding was put at a Kd of 0.736 nM; the koff (as a rule, the rate constant with which the complex falls apart) worked out at 4.38e-05 s⁻¹; the kon – broadly, the rate constant with which the complex forms – is 59600 M⁻¹ s⁻¹.
As to B2, the dissociation constant (Kd) (usually the equilibrium constant for the complex coming apart) is 0.0351 nM, the koff amounted to 3.91e-06 s⁻¹ and the kon amounted to 111000 M⁻¹ s⁻¹.
The corresponding values for B3 are 0.177 nM, 1.12e-05 s⁻¹ and 63300 M⁻¹ s⁻¹.
Taken in the same sequence, the figures for B4 were 0.0111 nM, 7.81e-07 s⁻¹ and 70400 M⁻¹ s⁻¹.
Consider B5, for which the Kd is 0.0743 nM, the koff came out at 8.8e-06 s⁻¹ and the kon worked out at 119000 M⁻¹ s⁻¹.
Taken in the same sequence, the figures for B6 were less than 0.001 nM, less than 1e-07 s⁻¹ and 62400 M⁻¹ s⁻¹.
B7 displayed a Kd of 0.16 nM, a koff of 1.81e-05 s⁻¹ and a kon of 113000 M⁻¹ s⁻¹.
Taken in the same sequence, the figures for B8 were 0.245 nM, 1.57e-05 s⁻¹ and 64100 M⁻¹ s⁻¹.

For a further test the target is unchanged. The test is described as above. This is another data set of the same source. As for the experimental part: as §1, §2
Consider B9, for which the dissociation constant Kd is 0.958 nM, the off-rate (koff) turned out to be 0.000102 s⁻¹ and the kon is 107000 M⁻¹ s⁻¹.
Taken in the same sequence, the figures for B10 were 1.88 nM, 0.000196 s⁻¹ and 105000 M⁻¹ s⁻¹.
The corresponding values for B11 are 1.34 nM, 0.000134 s⁻¹ and 100000 M⁻¹ s⁻¹.
The corresponding values for B12 are 0.527 nM, 3.26e-05 s⁻¹ and 61900 M⁻¹ s⁻¹.
For B13, the affinity, expressed as Kd, was 1.44 nM; the koff was determined as 0.000138 s⁻¹; the kon was 96400 M⁻¹ s⁻¹.
The corresponding values for B14 are 1.61 nM, 0.000161 s⁻¹ and 100000 M⁻¹ s⁻¹.
B15: the Kd is 1.22 nM, the koff came out at 0.000116 s⁻¹ and the kon was 94500 M⁻¹ s⁻¹.
The corresponding values for B16 are 0.831 nM, 5.12e-05 s⁻¹ and 61600 M⁻¹ s⁻¹.
In the case of B17, the Kd came to 1.98 nM, the koff is 0.000236 s⁻¹ and the kon was 119000 M⁻¹ s⁻¹.
B18 gave a Kd of 1.55 nM, a koff of 0.000142 s⁻¹ and a kon of 91500 M⁻¹ s⁻¹.
B8 registered a Kd of 0.713 nM, a koff of 5.84e-05 s⁻¹ and a kon of 81900 M⁻¹ s⁻¹.

A further test concerns the target T2, cynomolgus IL-36R overexpressed on …. The experiment in a line: FACS on 293T-CynoIL36R-NFκB cells, ratio of MFI to background MFI. The procedure:
(§3) After the cells was washed with PBS, the cells were resuspended with 100 μL of PBS and then the fluorescence signal was detected using a flow cytometer (BD, Accuri C6). […] The ratio was the ratio of mean fluorescence intensity (MFI) of the experimental group/the background MFI, and the resulting data were analyzed using GraphPad Prism.
as §2
On to B2, for which the EC50 (in general, the concentration that produces a half-maximal response) was roughly 4.94 nM.
The same measure, in the same setting: the same measure for B3: 4.84 nM; for B4: 5.58 nM.
Turning to B5, the EC50 came out at 5.76 nM.
On the same count and under the same terms, the value for B6 was 7.25 nM; that for B7 was 5.21 nM; that for B8 was 5.64 nM.

For the next test the target is unchanged. The test is described as above. The source holds these as a separate data set. As for the experimental part: as §3, §2
B9: the EC50 was found to be 18 nM.
B10: the EC50 amounted to 48.2 nM.
Same read-out and setting: the value for B11 was 10.5 nM.
On the same count and under the same terms, the value for B12 was 9.22 nM; that for B13 was 11.9 nM; that for B14 was 37.3 nM.
The same measure, in the same setting: the value for B15 was 5.75 nM; that for B16 was 176 nM; that for B17 was 24.4 nM.
Take B18: the EC50 worked out at 17.1 nM.
Same read-out and setting: the same measure for B8: 7.64 nM.
